Non-standard residues stand in square brackets, D forms with d. No end group written: not given here. *: point of attachment. C16 alkyl = N-terminal C16 alkyl tail, CCCCCCCCCCCCCCCC*; pS = N[C@@H](COP(=O)(O)O)C(=O)O
Key:
[1] = Solubility, pH-dependent precipitation and gelation in water; format: physicochemical
Experimental: After synthesis (see, example 10), the PA of FIG. 1 (characterized by ^1H NMR and matrix-assisted laser desorption/ionization time-of-flight mass spectrometry (MALDI-TOF MS): matrix ion [M−H]^−1=1333) was treated with dithiothreitol (DTT) at a pH of 8 to reduce all cysteine residues to free thiols. […] However, upon acidification of the solution below pH 4 the material rapidly becomes insoluble. Solutions more concentrated than 2.5 mg/ml form birefringent gels in water that are self-supporting upon inversion of the container. […] Negatives were digitized in the Umax PowerLook scanner with resolution 1200 dpi. The average thickness of the PA fibers was determined by two different procedures. First the Fourier transform of the images and following measurements of the distances between the peaks were performed in the NIH Image […] program. The second approach applied was averaging technique based on the cross-correlation method, widely used in single particle reconstruction using the EMAN […] program. For each data set 1200-1300 individual boxes were selected.
Several PAs with basic amino acids that can self-assemble at alkaline pH and also mixed systems, in which oppositely charged PAs self-assemble at neutral pH, were prepared. For this purpose PA compounds 22-25 were prepared by standard solid phase peptide synthesis followed by alkylation with the C16 fatty acid, palmitic acid. See Table 2, FIG. 10b (PA 22) and FIGS. 10c-e (PAs 23-25). The peptides thus prepared were characterized by electrospray mass spectroscopy and found to correspond to their respective expected masses.
Solutions of each compound of example 6 were prepared at a concentration of 0.1 mg/m1 at neutral pH.

[2] = Mineralization of PA nanofibers with CaCl2 and Na2HPO4 on TEM grid
Experimental: To investigate the mineralization properties of PA nanofibers of this invention, the material was assembled and mineralized directly on a holey carbon coated TEM grid—to allow study of the dynamics of the mineralization process while minimizing artifacts of TEM sample preparation. To prepare samples, a drop of aqueous PA (1 mg/ml) was mounted on the holey grid and the self-assembly of the PA was induced in an atmosphere of HCl vapor. The grids were immersed in aqueous iodine to oxidize the cysteine thiol groups to disulfides. After rinsing with distilled water, the PA coated grids were treated with 5 μl of 10 mM CaCl2 on one side and 5 μl of 5 mM Na2HPO4 on the other side. The two solutions are able to mix only by passing through the holes in the carbon support.
In a second control, a PA was prepared in which phosphoserine was replaced by serine and treated as above with calcium and phosphate.

[3] = Gelation on addition of metal salts (vial inversion); format: physicochemical; conditions: for gelation properties, KCl / gelation properties, BaCl2 / gelation properties, CaCl2 / gelation properties, GdCl3 / gelation properties, ZnBr2 / gelation properties, MgCl2 / gelation properties, Cu(ClO4)2: PA 10 mg/ml (roughly 8 mM); for gelation properties, BaCl2 / gelation properties, CaCl2 / gelation properties, GdCl3 / gelation properties, ZnBr2 / gelation properties, MgCl2 / gelation properties, Cu(ClO4)2: salt 20 mM; for result of addition of 200 mM of KCl / gelation in the presence of KCl or NaCl: 10 mM PA solution; for gelation in the presence of KCl or NaCl: salt concentrations up to 6M; for minimal amount of CA+2 and Gd+3 ions needed for the gelation: titration
Experimental: 100 μl of 10 mg/ml solution of peptide-amphiphile 20 was treated with 1M CaCl2 (adjusted to pH 6) drop wise in 1 μl increments. The solutions were shaken after each addition of the CaCl2 solution in order to obtain better diffusion of the divalent metal ions. Gelation was immediate. […] This calcium induced self-assembly may be particularly useful for medical applications where formation of a gel at physiological pH is desired. Trivalent metal cations can also be used for gelation.
To determine the relative number of metal ions necessary for gelation of the PAs, titration experiments were performed with PA molecules 26 and 27. […] (See Table 3, below). […] None of the negatively charged peptide-amphiphiles except molecule 32 formed gels in the presence of KCl at a ratio 1 molecule of PA per 20 molecules of KCl.
(§1) The synthesis of the peptide amphiphiles illustrates in examples 19-22 was performed using a standard synthesis scheme described elsewhere, herein, and as further available in the literature. Regarding gelation and with reference to the data of Table 3, […] volumes of PA solutions at concentrations 10 mg/ml (approximately 8 mM), pH 7.5 were mixed with 1 M solutions of NaCl, KCl, MgCl2, CaCl2, BaCl2, ZnBr2, […], Gd^+3 and Cu(ClO4)2. The amount of polyvalent ions added to the solutions varied from 0.5 to 5 metal ions per molecule of PA. For monovalent metal ions the maximum concentration of 6 M of metal ions per 10 mM of PA molecules has been tested. The solutions of the metal salts were added to the PA solutions by micropeppetors, the solutions were stirred briefly, in order to obtain better mixing of the components. The formation of self-supporting gels was examined by flipping of the vials up side down. In order to test the ability of cell compatible solutions to induce a gelation of PAs equal amounts 10 mM PA solutions were mixed with following formulations: MEM-α, DMEM containing 10% of fetal bovine serum, PBS without Ca^+2 and Mg^+2 and Hank's solution without Ca^+2 and Mg^+2 (Gibco). The ability of the above solutions to induce formation of the PAs was examined visually by flipping the vials up side down.

[4] = Gelation on mixing with cell culture media, PBS or Hank's solution; format: physicochemical; conditions: for gel formation on mixing with equal amounts of cell culture media: 10 mM PA solution in water; for gel formation on mixing with PBS and Hank's solutions depleted by Ca2+ and Mg2+: PA solution
Description: One potential application of the peptide-amphiphile self-assembled gels is in the area of tissue engineering, in particular the formation of artificial extracellular matrices and cell delivery systems. The results of this example show PA self-assembly in situ and in vitro cell culture systems. Body fluids as well as cell culture media contain significant amounts inorganic cations. It was presumed that the peptide amphiphiles would form a gel upon mixing with these liquids.
as §1

[5] = KCl concentration up to 6M (molecules 26 and 27)

Substance | gelation properties, KCl ([3]; KCl 200 mM, pH 7.5) | gelation properties, BaCl2 [3] | gelation properties, CaCl2 [3] | gelation properties, GdCl3 [3] | gelation properties, ZnBr2 [3] | also measured
21 ({C16 alkyl}-CCCCGGGEIKVAV-OH; cysteine pairing not given here) [compound 21] |  |  |  |  |  | appearance of the solution ([1]; 5 mg/ml in water at pH 7): slightly cloudy
Alkyl-C4G3SRGD-COOH ({C16 alkyl}-CCCCGGGSRGD-OH; cysteine pairing not given here) [PA 29] |  |  |  |  |  | mineral observed on the fibers by TEM ([2]; 20 minutes of incubation with calcium and phosphate): only amorphous mineral deposit; mineral observed on the fibers by TEM ([2]; 30 minutes of incubation with calcium and phosphate): only amorphous mineral
28 (AAAAGGG[pS]KGE-OH; not fully specified (N-terminus)) [compound 28] | Liquid | gel | gel | gel | gel | gel formation on mixing with equal amounts of cell culture media [4]: gel formation was observed; gel formation on mixing with PBS and Hank's solutions depleted by Ca2+ and Mg2+ [4]: no gel formation was observed
31 ({C16 alkyl}-AAAAGGGERGDS-OH; SMILES CCCCCCCCCCCCCCCCN[C@@H](C)C(=O)N[C@@H](C)C(=O)N[C@@H](C)C(=O)N[C@@H](C)C(=O)NCC(=O)NCC(=O)NCC(=O)N[C@@H](CCC(=O)O)C(=O)N[C@@H](CCCNC(=N)N)C(=O)NCC(=O)N[C@@H](CC(=O)O)C(=O)N[C@@H](CO)C(=O)O) [compound 31] | liquid |  |  | gel | gel | 
32 (CCCCGGGEIKVAV-OH; not fully specified (N-terminus); cysteine pairing not given here) [compound 32] | gel |  | gel | gel | gel | result of addition of 200 mM of KCl [3]: formation of a self-supporting gel; gel formation in the presence of KCl ([3]; ratio 1 molecule of PA per 20 molecules of KCl): formed gels; gelation properties, MgCl2 [3]: gel
27 (AAAAGGG[pS]RGD-OH; not fully specified (N-terminus); printed as Alkyl-A4G3S(P)RGD-COOH) [compound 27] |  | gel | gel | gel | gel | gelation in the presence of KCl or NaCl [3]: did not gel; gelation properties, KCl [3, 5]: Liquid; gelation properties, Cu(ClO4)2 [3]: gel; minimal amount of CA+2 and Gd+3 ions needed for the gelation [3]: about equal to the number of PA molecules in solution; gel formation on mixing with equal amounts of cell culture media [4]: gel formation was observed; gel formation on mixing with PBS and Hank's solutions depleted by Ca2+ and Mg2+ [4]: no gel formation was observed
33 ({C16 alkyl}-CCCCGGGKIKVAV-NH2; cysteine pairing not given here) [compound 33] |  |  |  |  |  | result of addition of 200 mM of KCl [3]: formation of a self-supporting gel; gel formation on mixing with equal amounts of cell culture media [4]: gel formation was observed
22 ({C16 alkyl}-CCCCGGGKIKVAV-NH2; cysteine pairing not given here) [compound 22] |  |  |  |  |  | appearance of the solution ([1]; 5 mg/ml in water at pH 7): slightly cloudy; appearance of the solution ([1]; 10 mg/ml, neutral pH): cloudy and viscous
24 ({C16 alkyl}-AAAAGGGKYIGSR-NH2; SMILES CCCCCCCCCCCCCCCCN[C@@H](C)C(=O)N[C@@H](C)C(=O)N[C@@H](C)C(=O)N[C@@H](C)C(=O)NCC(=O)NCC(=O)NCC(=O)N[C@@H](CCCCN)C(=O)N[C@@H](Cc1ccc(O)cc1)C(=O)N[C@H](C(=O)NCC(=O)N[C@@H](CO)C(=O)N[C@@H](CCCNC(=N)N)C(N)=O)[C@@H](C)CC) [compound 24] |  |  |  |  |  | pH above which a precipitate forms on slow addition of base ([1]; 0.1 mg/ml solution): above 9.5 pH; state at neutral pH ([1]; 0.1 mg/ml solution): completely dissolved; appearance of the solution ([1]; 10 mg/ml, neutral pH): cloudy and viscous
29 (CCCCGGGSRGD-OH; not fully specified (N-terminus); cysteine pairing not given here) [compound 29] | Liquid | gel | gel | gel | gel | 
26 (CCCCGGG[pS]RGD-OH; not fully specified (N-terminus); cysteine pairing not given here) [compound 26] |  | gel | gel | gel | gel | gelation in the presence of KCl or NaCl [3]: did not gel; gelation properties, KCl [3, 5]: Liquid; minimal amount of CA+2 and Gd+3 ions needed for the gelation [3]: about equal to the number of PA molecules in solution
30 ({C16 alkyl}-AAAGGEQS-OH; SMILES CCCCCCCCCCCCCCCCN[C@@H](C)C(=O)N[C@@H](C)C(=O)N[C@@H](C)C(=O)NCC(=O)NCC(=O)N[C@@H](CCC(=O)O)C(=O)N[C@@H](CCC(N)=O)C(=O)N[C@@H](CO)C(=O)O) [compound 30] | Liquid | gel | gel | gel | gel | gelation properties, Cu(ClO4)2 [3]: gel; gelation properties, MgCl2 [3]: gel
25 ({C16 alkyl}-AAAAGGGEIKVAV-OH; SMILES CCCCCCCCCCCCCCCCN[C@@H](C)C(=O)N[C@@H](C)C(=O)N[C@@H](C)C(=O)N[C@@H](C)C(=O)NCC(=O)NCC(=O)NCC(=O)N[C@@H](CCC(=O)O)C(=O)N[C@H](C(=O)N[C@@H](CCCCN)C(=O)N[C@H](C(=O)N[C@@H](C)C(=O)N[C@H](C(=O)O)C(C)C)C(C)C)[C@@H](C)CC) [compound 25] |  |  |  |  |  | pH below which the PA precipitates on slow acidification (HCl) ([1]; 0.1 mg/ml solution): < 4.5 pH; state at neutral pH ([1]; 0.1 mg/ml solution): completely dissolved; state on increasing the solution's pH (KOH) ([1]; 0.1 mg/ml solution): completely dissolved
20 ({C16 alkyl}-CCCCGGGSRGD-OH; cysteine pairing not given here) [compound 20] |  |  |  |  |  | gelation on dropwise addition of CaCl2 ([3]; 100 μl of 10 mg/ml PA, 1M CaCl2 (pH 6) in 1 μl increments): immediate

Reference: patent US8063014B2, “Self-assembly of peptide-amphiphile nanofibers under physiological conditions” (Northwestern University, priority 2002, dated 2011)
